Assay results: patent US20140335077A1, “Compositions and Methods for the Treatment of Cancer Using IGF-IR Antagonists and MAPK/ERK Inhibitors” (priority 2013, published 2014)

What was measured:
Assay type in all cases: cell-based
[1] = system: HEPG2; experiment: PrestoBlue cell viability, anti-IGF-1R antibody with U0126, HEPG2 (hepatic carcinoma); conditions: 48 h
Method: (§1) Cells were incubated in 96 well tissue culture plates and cell viability was measured by PrestoBlue cell viability assay (Invitrogen, CA, USA) according to manufacturer's instructions. Fluorescence was measured with excitation at 560 nm and emission at 590 nm. Cell number was calculated from standard curves of fluorescence measurements from known numbers of cells. Triplicate cultures were performed on all experiments.
(§2) The effects of anti-IGF-1R antibodies/MEK inhibitor combination treatment on viability of different types of tumor cells were investigated using PrestoBlue cell viability assay (Invitrogen, CA, USA) according to manufacturer's instructions. (Table 3).
(§3) Cells were incubated in serum free medium for 12 h followed by pretreatment for 60 min without or with 0.5, 1, 3 or 5 μM of the ERK inhibitor U0126, and then treated without or with 100 ng/ml anti-IGF-1R antibodies (Figitumumab or αIR-3 (Calbiochem, US). Cells were incubated in 96 well tissue culture plates for 48 hours and cell viability was measured by PrestoBlue cell viability assay. Fluorescence was measured with excitation at 560 nm and emission at 590 nm. Cell number was calculated from standard curves of fluorescence measurements from known numbers of cells. Triplicate cultures were performed on all experiments. The inhibition induced by anti-IGF-1R antibodies treated cells was calculated as percentage of untreated cells.

[2] = system: OMM 2.5; experiment: PrestoBlue cell viability, anti-IGF-1R antibody with U0126, OMM 2.5 (liver metastasis of uveal melanoma); conditions: OMM 2.5 cells, 48 h
Method: as §1, §2, §3

[3] = system: DU-145; experiment: PrestoBlue cell viability, anti-IGF-1R antibody with U0126, DU-145 (prostate carcinoma); conditions: DU-145 cells, 48 h
Method: as §1, §2, §3

[4] = system: PC-3; experiment: PrestoBlue cell viability, anti-IGF-1R antibody with U0126, PC-3 (prostate carcinoma); conditions: PC-3 cells, 48 h
Method: as §1, §2, §3

[5] = target: T1, IGF-1R (Homo sapiens, UniProt P08069); experiment: IGF-1R ubiquitination in ES cells (immunoprecipitation, WB); conditions: 10 min stimulation, serum starved ES cells; all investigated cell lines
T1 construct: all the ES cell lines tested expressed IGF-1R; endogenous in cells; host or cells: Ewing's sarcoma cell lines SKES, RDES, CADO, A673, SKNMC
Method: (§4) FIG. 2A-FIG. 2D. Mechanism of CP induced IGF-1R downregulation: β-arrestin1 recruitment and receptor ubiquitination. (A) Cells incubated in serum free medium for 12 h were treated with 0, 0.1 or 1 μg/ml CP for 24 h. Protein lysates were analyzed by WB for IGF-1R and GAPDH as a loading control. […] Protein lysates were analyzed by WB for IGF-1R and GAPDH as a loading control. Signals were quantified by densitometry, normalized to GAPDH and expressed as a percentage of the IGF-1R at 0 h. Data correspond to the mean±SEM from three independent experiments. […] IGF-1R was immunoprecipitated from lysates and analyzed by WB (IB) for ubiquitination (Ub) and IGF-1R as a loading control. Molecular weight markers in KDa are indicated to the left of the panels. (D) β-Arrestin1 (β-arr1) was immunoprecipitated from cell lysates prepared as for (C). Immunoprecipitated proteins were analyzed by WB for IGF-1R. The whole lysates were analyzed by WB for GAPDH as a loading control.
Cells were lysed with 500 μl lysis buffer (110 mM KOAc, 0.5% (v/v) Triton X-100, 100 mM NaCl, protease inhibitor cocktail tablet (Roche), buffering salts pH 7.4). 500 μg of protein was incubated with Dynabeads protein G (10 μl) (Invitrogen, CA, USA) and 1 μg antibody overnight at 4° C. on a rotator platform. […]
These trends were confirmed by densitometric quantification of multiple experiments (FIG. 2B, graphs). […]

[6] = system: SKMel5; experiment: PrestoBlue cell viability, anti-IGF-1R antibody with U0126, SKMel5 (melanoma); conditions: 48 h
Method: as §1, §2, §3

[7] = system: MDA-MB-231; experiment: PrestoBlue cell viability, anti-IGF-1R antibody with U0126, MDA-MB-231 (breast carcinoma); conditions: MDA-MB-231 cells, 48 h
Method: as §1, §2, §3

[8] = system: DFB; experiment: PrestoBlue cell viability, anti-IGF-1R antibody with U0126, DFB (melanoma); conditions: 48 h
Method: as §1, §2, §3

[9] = target: T1, IGF-1R; experiment: IGF-1R downregulation in ES cell lines (western blot)
Method: as §4, with “Mechanism of CP induced IGF-1R downregulation: β-arrestin1 recruitment and receptor ubiquitination.” left out
Appropriate primary antibody was incubated overnight at 4° C.
Given that β-arrestin1 (β-arr1) is a key protein involved in IGF-1R ubiquitination, we also investigated ligand induced IGF-1R/β-arr1 association.

[10] = U0126 0 μM (60 min pretreatment)
[11] = U0126 0.5 μM (60 min pretreatment)
[12] = U0126 1 μM (60 min pretreatment)
[13] = U0126 3 μM (60 min pretreatment)
[14] = U0126 5 μM (60 min pretreatment)

B1: CP-751,871: anti-IGF-1R antibody figitumumab (Pfizer), IGF-1R antagonist (antibody, chains of the INN, looked up)
heavy: EVQLLESGGGLVQPGGSLRLSCTASGFTFSSYAMNWVRQAPGKGLEWVSAISGSGGTTFYADSVKGRFTISRDNSRTTLYLQMNSLRAEDTAVYYCAKDLGWSDSYYYYYGMDVWGQGTTVTVSSASTKGPSVFPLAPCSRSTSESTAALGCLVKDYFPEPVTVSWNSGALTSGVHTFPAVLQSSGLYSLSSVVTVPSSNFGTQTYTCNVDHKPSNTKVDKTVERKCCVECPPCPAPPVAGPSVFLFPPKPKDTLMISRTPEVTCVVVDVSHEDPEVQFNWYVDGVEVHNAKTKPREEQFNSTFRVVSVLTVVHQDWLNGKEYKCKVSNKGLPAPIEKTISKTKGQPREPQVYTLPPSREEMTKNQVSLTCLVKGFYPSDIAVEWESNGQPENNYKTTPPMLDSDGSFFLYSKLTVDKSRWQQGNVFSCSVMHEALHNHYTQKSLSLSPG
light: DIQMTQFPSSLSASVGDRVTITCRASQGIRNDLGWYQQKPGKAPKRLIYAASRLHRGVPSRFSGSGSGTEFTLTISSLQPEDFATYYCLQHNSYPCSFGQGTKLEIKRTVAAPSVFIFPPSDEQLKSGTASVVCLLNNFYPREAKVQWKVDNALQSGNSQESVTEQDSKDSTYSLSSTLTLSKADYEKHKVYACEVTHQGLSSPVTKSFNRGEC
For B1, which “Percentage inhibition of antibody treated cells (100 ng/ml)” value (“Percentage inhibition” for short) [1, 10] is on record?
The value was 7%.

And the “Percentage inhibition” value [1, 11]?
The value was 11%.

What about the “Percentage inhibition” value [1, 12] of the same molecule?
Its value is 22%.

And the “Percentage inhibition” value [1, 13]?
The value was 27%.

And the “Percentage inhibition” value [1, 14]?
The value was 37%.

And the “Percentage inhibition” value [2, 10]?
Its value is 7%.

And the “Percentage inhibition” value [2, 11]?
Its value is 33%.

What about the “Percentage inhibition” value [2, 12] of the same molecule?
The value was 65%.

What about the “Percentage inhibition” value [2, 13] of the same molecule?
The value was 87%.

And the “Percentage inhibition” value [2, 14]?
Its value is 89%.

What about the “Percentage inhibition” value [3, 10] of the same molecule?
Its value is 18%.

And the “Percentage inhibition” value [3, 11]?
The value was 22%.

What about the “Percentage inhibition” value [3, 12] of the same molecule?
Its value is 34%.

And the “Percentage inhibition” value [3, 13]?
Its value is 54%.

What about the “Percentage inhibition” value [3, 14] of the same molecule?
The value was 77%.

And the “Percentage inhibition” value [4, 10]?
The value was 22%.

What about the “Percentage inhibition” value [4, 11] of the same molecule?
The value was 24%.

What about the “Percentage inhibition” value [4, 12] of the same molecule?
Its value is 32%.

And the “Percentage inhibition” value [4, 13]?
The value was 45%.

And the “Percentage inhibition” value [4, 14]?
Its value is 52%.

And the “IGF-1R ubiquitination compared with IGF-1” value [5]?
The value was “more potent in generating receptor ubiquitination”.

And the “Percentage inhibition” value [6, 10]?
Its value is 22%.

And the “Percentage inhibition” value [6, 11]?
The value was 30%.

And the “Percentage inhibition” value [6, 12]?
The value was 35%.

What about the “Percentage inhibition” value [6, 13] of the same molecule?
The value was 39%.

And the “Percentage inhibition” value [6, 14]?
Its value is 42%.

And the “Percentage inhibition” value [7, 10]?
Its value is 8%.

What about the “Percentage inhibition” value [7, 11] of the same molecule?
The value was 12%.

What about the “Percentage inhibition” value [7, 12] of the same molecule?
The value was 15%.

And the “Percentage inhibition” value [7, 13]?
The value was 22%.

And the “Percentage inhibition” value [7, 14]?
Its value is 32%.

And the “Percentage inhibition” value [8, 10]?
The value was 15%.

What about the “Percentage inhibition” value [8, 11] of the same molecule?
The value was 17%.

What about the “Percentage inhibition” value [8, 12] of the same molecule?
Its value is 24%.

What about the “Percentage inhibition” value [8, 13] of the same molecule?
The value was 45%.

What about the “Percentage inhibition” value [8, 14] of the same molecule?
The value was 55%.

What about the IGF-1R downregulation ([9]; 100 ng/ml or 1 μg/ml, 24 h, serum starved, all ES cell lines) of the same molecule?
The IGF-1R downregulation was “downregulate IGF-1R in a dose dependent manner”.

And the “Rate of receptor degradation” value ([9]; A673 cells, time-response)?
Its value is “very fast”.

What about the “Receptor degradation compared with IGF-1 (time-response)” value ([9]; SKES, RDES, CADO and SKNMC, molar concentration approximately 10 fold less than IGF-1) of the same molecule?
Its value is “more efficient at inducing receptor degradation”.
